Experimental data taken from patent US20170081419A1 (AbbVie / Abbott, published 2017).
Positions count from the first letter of the chain named.

Tests used:
[1] = molecular target: T1, human CD46 (recombinant antigen used in affinity and mapping experiments) (human, UniProt P15529 35-285, limits assumed); experiment: bio-layer interferometry (ForteBIO, superscript F), antigen concentration series
T1 construct: also called CD46 antigen
T1 sequence (looked up): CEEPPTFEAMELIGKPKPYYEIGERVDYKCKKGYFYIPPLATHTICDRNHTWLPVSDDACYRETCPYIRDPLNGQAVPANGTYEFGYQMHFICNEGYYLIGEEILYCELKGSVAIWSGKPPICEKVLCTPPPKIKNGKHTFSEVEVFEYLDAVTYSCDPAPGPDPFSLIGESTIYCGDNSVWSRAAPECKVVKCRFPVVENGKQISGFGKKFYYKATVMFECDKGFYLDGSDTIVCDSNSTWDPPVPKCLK
Procedure: (§1) With regard to the data, affinity was measured in three ways to ensure accuracy. […] Second, the affinities and kinetic constants kₒₙ and koff of the selected modulators were then measured using bio-layer interferometry analysis on a ForteBIO RED (ForteBIO, Inc.) with a standard antigen concentration series. Finally, the affinity of selected modulators was measured by surface plasmon resonance (Biacore System, GE Healthcare). Based on a standard antigen concentration series and using a 1:1 Langmuir binding model, the Kd of the antibody binding to antigen and the kinetic constants kₒₙ and koff were determined.

[2] = molecular target: T1, human CD46 (recombinant antigen used in …); experiment: SPR (Biacore), human CD46 antigen series, 1:1 Langmuir model
[3] = molecular target: human CD46 on the cell surface (human), P15529; experiment: cell-based or functional assay
[4] = molecular target: T2, marmoset CD46 homolog (marmoset (Callithrix jacchus), UniProt Q8HYX8 33-285, limits assumed); experiment: ForteBIO, concentration series of recombinant monomeric CD46 homolog
T2 sequence (looked up): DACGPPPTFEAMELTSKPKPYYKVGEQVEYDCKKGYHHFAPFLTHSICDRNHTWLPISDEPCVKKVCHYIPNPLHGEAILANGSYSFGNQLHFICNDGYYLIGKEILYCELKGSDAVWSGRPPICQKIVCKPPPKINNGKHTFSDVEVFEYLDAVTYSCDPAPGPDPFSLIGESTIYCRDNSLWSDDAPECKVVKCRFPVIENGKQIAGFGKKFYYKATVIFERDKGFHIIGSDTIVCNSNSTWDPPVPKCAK
Procedure: Finally, cross-reactivity with regard to cynomolgus, marmoset, and squirrel monkey CD46 homologs were evaluated in ForteBIO using a concentration series with recombinantly expressed, monomeric CD46 antigens.

[5] = molecular target: T1, human CD46 (recombinant antigen used in …); experiment: surface plasmon resonance (Biacore, superscript B), antigen concentration series, 1:1 Langmuir model
Procedure: as §1

B1: N50.3 (antibody, IgG2b, V domains shown)
VH: EVLLHQSGPELVKPGASVKIPCKASGYTFTDYNMDWVKQSHGKSLEWIGDINPNNGGTFYNQKFKGKATLTVHKSSSTAFMELRSLTSEDTAVYYCTRSKYDNYPWFAYWGQGTLVTVSA
VL: DIQMTQITSSLSASLGDRVTISCSASQGISNYLNWYQQKPDGTVKLLIYYTSSLHSGVPSRFRGSGSGTNYSLTISNLEPEDIATYYCQQYIKLPWTFGGGTKLEIKR
notes: .3 is the subclone suffix; also called SC1.N50
Binder B1 has a Kd [1] of 1 nM.

B2: humanized antibody hSC1.N71 (antibody, human IgG1, V domains shown)
VH: QVQLQESGPGLVKPSETLSLTCTVSGGSVSSYDISWIRQPPGKGLEWIGVIWTDGGTNYNSAFMSRVTISVDTSKNQFSLKLSSVTAADTAVYYCARVYDGYPWFAYWGQGTLVTVSS
VL: DIQMTQSPSSLSASVGDRVTITCRASQGISNYLNWYQQKPGKAPKLLIYYTSSLHSGVPSRFSGSGSGTDFTLTISSLQPEDFATYYCQQYIKLPWTFGGGTKLEIKR
notes: also called humanized SC1.N71; human SC1.N71
With B2 the Kd [2] was 0.7 nM and the effective concentrations causing 50% cell death (EC50), HEK-293T cells, streptavidin-saporin [3] was 0.0266 nM.

B3: humanized antibody hSC1.N149 (antibody, human IgG1, V domains shown)
VH: QVQLVQSGAEVKKPGASVKVSCKASGYTFTDYNMDWVRQAPGQGLEWMGDINPNNGDTFYNQKFKGRVTMTTDTSTSTAYMELRSLRSDDTAVYYCARSKYDNYPWFAYWGQGTLVTVSS
VL: B2 VL with G28D, S30N
B3 gave an effective concentrations causing 50% cell death (EC50), HEK-293T cells, streptavidin-saporin [3] of 0.174 nM.

B4: N135.1 (antibody, IgG2b, V domains shown)
VH: DVQLVESGGGLVQPGGSRKLSCAASGFTFSSFGMHWVRQAPEKGLEWVAYISSATSAIYYADTVKGRFTISRDNPTNTLFLQMTSLRSEDTAMYYCARKGNNYFDYWGQGTTLTVSS
VL: QIVLTQSPAIMSASPGEKVTLSCSATSSVTYMHWLQQKPGSSPKPWIYRTSNLASGVPARFRGSGSGTSYSLTISSMEAEDAATYYCQQYHSYPPTFGGGTKLEIKR
notes: .1 is the subclone suffix; also called SC1.N135
In the case of B4, the binding result [4] is reported as “no binding” and the Kd [1] is reported as 1 nM.

B5: N146.2 (antibody, IgG1, V domains shown)
VH: EVQLVESGGGLVKPGGSLKLSCAASGFTFSSFGMSWVRQTPEKRLEWVAAINSNGGNTYYSDTVKGRFTISRDNAKNTLYLQMSSLRSADTALYYCARVVHFDVWGAGTTVTVSS
VL: AIQMTQTTSSLSASLGDRVTISCSASQDISNYLNWYQQKPDGTVKLLIYYTSSLHSGVPSRFSGSGSGTDYSLTISNVEPEDVATYYCQQYSELPYTFGGGTKLEINR
notes: Kept apart from m10, which is the mouse/human chimeric form of the same clone; also called SC1.N146 (murine hybridoma clone)
With B5 the binding result [4] was “no binding” and the Kd [5] was 1.5 nM.

B6: N95.1 (antibody, IgG2a, V domains shown)
VH: QVQLQQSGAELARPGASVKLSCKASDYTFTSYGISWVKQRTGQGLEWIGEIFPRSGNTYYNEKFKGKATLTADKSSSTAYMELRSLTSEDSAVYFCARGLGGAMDYWGQGTSVIVSS
VL: DIVMTQAAPSVPVTPGESVSISCRSSKSLLHSNGNTYLYWFLQRPGQSPQLLIYRMSNLASGVPDRFSGSGSGTTFTLRISGVEAEDVGVYYCMQHLEYPCTFGGGTKLEIKR
notes: .1 is the subclone suffix; also called SC1.N95
In the case of B6, the binding result [4] is reported as “no binding” and the Kd [1] is reported as 8 nM.
